In US20140087995A1 (published 2014):
One block for each binder: values may come before it. Numbered stars: 1 amine (or outer) side, 2 acyl side, 3 side chain; on linkers, the order of the positions; unused ones are H or OH. Bridge positions count the residues as written; N and C are the ends. Side chains are listed from the residue outwards. Ends that are not written are not given here. * marks the point of attachment. C20 diacid = O=C(O)CCCCCCCCCCCCCCCCCCC(=O)*; γGlu = O=C(O)[C@H](CCC(=O)[*:2])N[*:1]; AEEA = NCCOCCOCC(=O)O

Tests used:
rat calcitonin receptor [1] = target: T1, rat calcitonin receptor (rat, UniProt P32214 25-516); assay: IC50 on rat CTR divided by IC50 on rat amylin receptor (Assays VIII/VI)
T1 construct: whole, on cells; Used as membranes prepared from BHK tk'ts 13 cells transiently transfected with the rat calcitonin receptor (Assay VIII); also called rCTR; rat calcitonin (a) receptor
T1 sequence (looked up): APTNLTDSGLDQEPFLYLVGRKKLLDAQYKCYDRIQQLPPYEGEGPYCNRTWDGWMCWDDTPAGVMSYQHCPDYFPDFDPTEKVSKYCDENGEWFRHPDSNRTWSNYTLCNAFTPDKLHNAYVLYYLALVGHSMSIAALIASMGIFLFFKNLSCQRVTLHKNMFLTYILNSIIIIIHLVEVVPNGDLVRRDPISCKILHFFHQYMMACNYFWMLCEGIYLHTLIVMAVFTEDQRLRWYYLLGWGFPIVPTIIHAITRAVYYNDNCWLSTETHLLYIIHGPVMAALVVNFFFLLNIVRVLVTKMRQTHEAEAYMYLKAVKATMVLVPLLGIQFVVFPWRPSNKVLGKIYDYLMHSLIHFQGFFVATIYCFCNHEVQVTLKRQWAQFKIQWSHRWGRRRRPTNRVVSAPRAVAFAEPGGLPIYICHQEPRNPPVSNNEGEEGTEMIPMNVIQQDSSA

[2] = target: T2, human calcitonin receptor (human, UniProt P30988 25-474); assay: IC50 on human CTR divided by IC50 on human amylin receptor (Assays VII/V)
T2 construct: whole, on cells; Used as membranes prepared from a BHK tk'ts 13 cell line stably transfected with the human calcitonin receptor (Assay VII); also called hCTR; hCT
T2 sequence (looked up): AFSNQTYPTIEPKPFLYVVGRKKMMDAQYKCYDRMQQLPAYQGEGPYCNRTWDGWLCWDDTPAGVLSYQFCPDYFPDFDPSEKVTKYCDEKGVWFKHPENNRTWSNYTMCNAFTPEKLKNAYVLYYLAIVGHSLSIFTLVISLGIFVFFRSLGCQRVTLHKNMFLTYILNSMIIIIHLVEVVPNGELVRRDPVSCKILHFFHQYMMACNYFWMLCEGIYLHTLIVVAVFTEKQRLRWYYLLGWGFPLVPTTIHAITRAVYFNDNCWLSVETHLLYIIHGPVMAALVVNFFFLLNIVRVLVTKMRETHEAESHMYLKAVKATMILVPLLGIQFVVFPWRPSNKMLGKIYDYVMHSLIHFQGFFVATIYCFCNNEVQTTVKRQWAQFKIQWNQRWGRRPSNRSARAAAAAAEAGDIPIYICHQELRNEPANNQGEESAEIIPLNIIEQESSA
Experimental: The resulting pellet was resuspended, homogenized and centrifuged (20.000 rpm, 15 min) in a buffer containing 20 mM Na-HEPES and 0.1 mM EDTA (pH 7.4, buffer 2). The resulting pellet was resuspended in buffer 2 and protein concentration was measured (BCA protein Assay, Pierce). The homogenate was kept cold during the whole procedure. The membranes were kept at −80° C. until use. The assay was performed in a 384 well Optiplate (PerkinElmer) in a total volume of 40 ul. Membranes were mixed with SPA beads. Final concentration of membranes 35 ng/μL final and SPA beads was 0.05 mg/well. Test-compounds were dissolved in DMSO and further diluted in assay buffer (50 mM Hepes, pH 7.4, 1 mM CaCl2, 5 mM MgCl₂, 0.1% OA and 0.02% Tween20). […] The final mixture was incubated with shaking at 400 rpm for 120 min at 25° C. prior to centrifugation (1500 rpm, 10 min). Samples were analyzed on TopCounter™ (Packard). The IC₅₀ was calculated using (one site binding competition analysis) GraphPad Prism5 as a measure of receptor affinity.
Membranes were prepared in the following way; the cells were rinsed with PBS and incubated with Versene for approximately 5 min before harvesting. The cells were flushed with PBS and the cell-suspension was centrifuged for 5 min at 1000 rpm. Cells were homogenized (Ultrathurrax) in a buffer containing 20 mM Na-HEPES and 10 mM EDTA (pH 7.4) and centrifuged at 20.000 rpm for 15 min. The resulting pellet was resuspended, homogenized and centrifuged (20.000 rpm, 15 min) in a buffer containing 20 mM Na-HEPES and 0.1 mM EDTA (pH 7.4, buffer 2). The resulting pellet was resuspended in buffer 2 and protein concentration was measured (BCA protein Assay, Pierce). The homogenate was kept cold during the whole procedure. The membranes were kept at −80° C. until use. Assay was performed in a 384 well Optiplate (PerkinElmer) in a total volume of 40 ul. Membranes were mixed with SPA beads.

rat calcitonin receptor [3] = target: T1, rat calcitonin receptor; assay: SPA competition with 125I-calcitonin, membranes of BHK cells with rat CTR (Assay VIII)
[4] = target: T3, rat amylin receptor (rat calcitonin receptor + rat RAMP 3) (rat, UniProt P32214 25-516; Q9JJ73 23-147); assay: SPA competition with 125I-rat amylin, membranes of BHK cells with rat CTR + rat RAMP3 (Assay VI)
T3 construct: whole, on cells; Used as membranes prepared from BHK tk'ts 13 cells transiently transfected with rat calcitonin receptor and rat RAMP 3 (Assay VI); also called rAmylin-R; rat amylin 3(a) receptor
T3 sequence (looked up) 1: T1 sequence (looked up)
T3 sequence (looked up) 2: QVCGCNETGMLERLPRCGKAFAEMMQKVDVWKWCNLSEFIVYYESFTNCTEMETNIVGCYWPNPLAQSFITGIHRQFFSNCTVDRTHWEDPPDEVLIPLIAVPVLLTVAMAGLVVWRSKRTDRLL

- Ratio rCT/rAmylin binding (rat calcitonin receptor [1]): 56.8
- Ratio hCT/hAmylin binding [2]: 80
- IC50 (rat calcitonin receptor [3]): 38.9 nM
- IC50 [4]: 0.686 nM
B1: N^ε1-[2-[2-[2-[[(4S)-4-carboxy-4-(19-carboxynonadecanoylamino)butanoyl]amino]ethoxy]ethoxy]acetyl]-[Arg17,Pro21,Pro27,His34]-h-amylin (peptide)
peptide: K([AEEA-γGlu-C20 diacid])CNTATCATQRLANFLRHSSPNFGAIPSSTNVGHNTY-NH2
modifications: disulfide 2-7; N-terminus assumed
SMILES: CC[C@H](C)[C@H](NC(=O)[C@H](C)NC(=O)CNC(=O)[C@H](Cc1ccccc1)NC(=O)[C@H](CC(N)=O)NC(=O)[C@@H]1CCCN1C(=O)[C@H](CO)NC(=O)[C@H](CO)NC(=O)[C@H](Cc1c[nH]cn1)NC(=O)[C@H](CCCNC(=N)N)NC(=O)[C@H](CC(C)C)NC(=O)[C@H](Cc1ccccc1)NC(=O)[C@H](CC(N)=O)NC(=O)[C@H](C)NC(=O)[C@H](CC(C)C)NC(=O)[C@H](CCCNC(=N)N)NC(=O)[C@H](CCC(N)=O)NC(=O)[C@@H](NC(=O)[C@H](C)NC(=O)[C@@H]1CSSC[C@H](NC(=O)[C@@H](N)CCCCNC(=O)COCCOCCNC(=O)CC[C@H](NC(=O)CCCCCCCCCCCCCCCCCCC(=O)O)C(=O)O)C(=O)N[C@@H](CC(N)=O)C(=O)N[C@@H]([C@@H](C)O)C(=O)N[C@@H](C)C(=O)N[C@@H]([C@@H](C)O)C(=O)N1)[C@@H](C)O)C(=O)N1CCC[C@H]1C(=O)N[C@@H](CO)C(=O)N[C@@H](CO)C(=O)N[C@H](C(=O)N[C@@H](CC(N)=O)C(=O)N[C@H](C(=O)NCC(=O)N[C@@H](Cc1c[nH]cn1)C(=O)N[C@@H](CC(N)=O)C(=O)N[C@H](C(=O)N[C@@H](Cc1ccc(O)cc1)C(N)=O)[C@@H](C)O)C(C)C)[C@@H](C)O
notes: Analogue of human amylin; also called compound 76

- Ratio rCT/rAmylin binding (rat calcitonin receptor [1]): 130
- Ratio hCT/hAmylin binding [2]: 104
- IC50 (rat calcitonin receptor [3]): 10.9 nM
- IC50 [4]: 0.084 nM
B2: N^ε1-[2-[2-[2-[[(4S)-4-carboxy-4-(19-carboxynonadecanoylamino)butanoyl]amino]ethoxy]ethoxy]acetyl]-[Arg17,Pro21,Pro27,Pro28,Pro31]-h-amylin (peptide)
peptide: K([AEEA-γGlu-C20 diacid])CNTATCATQRLANFLRHSSPNFGAIPPSTPVGSNTY-NH2
modifications: disulfide 2-7
notes: Analogue of human amylin; also called compound 53

- Ratio rCT/rAmylin binding (rat calcitonin receptor [1]): 77.2
- Ratio hCT/hAmylin binding [2]: 51.8
- IC50 (rat calcitonin receptor [3]): 6.25 nM
- IC50 [4]: 0.081 nM
B3: N^ε1-[2-[2-[2-[[(4S)-4-carboxy-4-(19-carboxynonadecanoylamino)butanoyl]amino]ethoxy]ethoxy]acetyl]-[Arg17,Pro21,Pro27,Pro28,Pro34]-h-amylin (peptide)
peptide: K([AEEA-γGlu-C20 diacid])CNTATCATQRLANFLRHSSPNFGAIPPSTNVGPNTY-NH2
modifications: disulfide 2-7; N-terminus assumed
SMILES: CC[C@H](C)[C@H](NC(=O)[C@H](C)NC(=O)CNC(=O)[C@H](Cc1ccccc1)NC(=O)[C@H](CC(N)=O)NC(=O)[C@@H]1CCCN1C(=O)[C@H](CO)NC(=O)[C@H](CO)NC(=O)[C@H](Cc1c[nH]cn1)NC(=O)[C@H](CCCNC(=N)N)NC(=O)[C@H](CC(C)C)NC(=O)[C@H](Cc1ccccc1)NC(=O)[C@H](CC(N)=O)NC(=O)[C@H](C)NC(=O)[C@H](CC(C)C)NC(=O)[C@H](CCCNC(=N)N)NC(=O)[C@H](CCC(N)=O)NC(=O)[C@@H](NC(=O)[C@H](C)NC(=O)[C@@H]1CSSC[C@H](NC(=O)[C@@H](N)CCCCNC(=O)COCCOCCNC(=O)CC[C@H](NC(=O)CCCCCCCCCCCCCCCCCCC(=O)O)C(=O)O)C(=O)N[C@@H](CC(N)=O)C(=O)N[C@@H]([C@@H](C)O)C(=O)N[C@@H](C)C(=O)N[C@@H]([C@@H](C)O)C(=O)N1)[C@@H](C)O)C(=O)N1CCC[C@H]1C(=O)N1CCC[C@H]1C(=O)N[C@@H](CO)C(=O)N[C@H](C(=O)N[C@@H](CC(N)=O)C(=O)N[C@H](C(=O)NCC(=O)N1CCC[C@H]1C(=O)N[C@@H](CC(N)=O)C(=O)N[C@H](C(=O)N[C@@H](Cc1ccc(O)cc1)C(N)=O)[C@@H](C)O)C(C)C)[C@@H](C)O
notes: Analogue of human amylin; also called compound 55
